# Laboratory results reported in US11426447B2, “Neuregulin for the treatment of tumors of the nervous system” (LEIBNIZ-INSTITUT FUR …, priority 2016, dated 2022).
# Tests used:
# [1] = tested on: tumorlets (neoplastic Schwann cell proliferation areas); assay: Quantification of tumorlets in Nf2flox;Postn-Cre mice; type: in vivo; conditions: 20 μg rhNRG1 per kg bodyweight ip for three months, vs control animals
# Description: PFA-fixed tissue blocks derived from rhNRG1 and control treated animals containing lower spinal cord, lumbar dorsal root ganglions (DRG) as well as distal nerve proportions were cut in 4 planes per animal. Photographs were subsequently scanned and analyzed using the NanoZoomer Digital Pathology Software. The total area occupied by peripheral nerve tissue and dorsal root ganglion (DRG) tissue in mm^2 was quantified separately. Likewise, neoplastic tissue regions were identified and quantified separately for peripheral nerves and DRG areas. All quantitative analyses of tumorlets in Nf2flox;Postn-Cre mice were performed in blinded manner.
# The in vivo results on the efficacy of rhNRG1 on schwannoma growth was tested as described in Example 1 however in a another animal model of schwannoma disease, the well-established Nf2flox;Postn-Cre mouse line, wherein a conditional Nf2 gene deletion is facilitated by the Periostin-Cre driver line (Nf2flox;Postn-Cre).
# In this model all animals spontaneously develop spinal, peripheral and cranial nerve schwannomas over time (Gehlhausen et al., 2015). 4-month-old mutant Nf2flox;Postn-Cre animals as well as their corresponding wildtype littermates were either treated with saline control injections or intraperitoneal rhNRG1 administration for three months (FIG. 8A). […]
# [2] = Serum levels of rhNRG1 after intraperitoneal injection (Nrg1 ELISA kit); type: in vivo, mice; conditions: single intraperitoneal injection, 10 μg per kg body weight, pooled blood
# Protocol: To measure peripheral exposure of rhNRG1 in mice, up to 50 μl blood was sampled from mice for four consecutive days via bilateral retro-orbital plexus and facial veins. For serum preparation, collected blood was allowed to clot at room temperature for 1 hour before spinning for 20 minutes at 2,000 g.
# Blood serum levels of rhNRG1 before and after intraperitoneal injection were measured using a commercially available kit according to manufacturer's instructions (#ab100614; Abcam; USA).
# Crush injury-induced schwannoma formation was provoked in 2-month-old mice. Subsequently, administration of rhNRG1 was performed both systemically (by intraperitoneal injection) and locally (by rhNRG1-containing absorbable collagen sponges (ACS)). Vehicle saline solution was given to control animals. In order to assess the bioavailability of intraperitoneally injected rhNRG1 (10 μg per kg body weight), rhNRG1 serum levels were evaluated. Strikingly, rhNRG1 levels reached a peak 2 days after injection (FIG. 1B). […] A significant decline in body weight at the chosen dosage was, however, not observed (FIG. 1C).
# [3] = tested on: ErbB2 and myelin protein zero (MPZ) expression; assay: Immunoblot of nerve tissue from Nf1flox;Postn-Cre mice; type: in vivo; conditions: rhNRG1 over 3 months
# Description: A, Study protocol used to assess the efficacy of systemic rhNRG1 treatment on schwannoma growth in Nf1flox;Postn-Cre animals. B, Representative longitudinal nerve section from six-month-old mutant Nf1flox;Postn-Cre mice indicating a circumscribed area of neurofibroma growth. Scale bars represent 50 μm. C, Fraction of tumor tissue within total tissue was quantified as area covered by tumor in relation to the total nerve area in investigated nerve sections. Nf1flox;Postn-Cre mutant mice receiving intraperitoneal saline injections (KO vehicle ip) were compared to mutants on rhNRG1 injections (KO rhNRG1 ip; n=6 animals per genotype; mean±SEM). D, Immunoblot of pooled tissue from at least three different animals prepared from sciatic nerves, brachial nerves, trigeminal nerves and dorsal root ganglions (DRG). Nf1flox;Postn-Cre mutant animals received either vehicle control injections (KO vehicle ip) or rhNRG1 treatment (KO rhNRG1 ip) over 3 months. Immunostaining for ErbB2, Akt, phospho-Akt (pAkt), c-Jun, Erk1/2, phospho-Erk1/2 (pErk1/2), myelin protein zero (MPZ), myelin basic protein (MBP) and GAPDH as loading control (n=3).
# Immunoblotting was performed as described in (Morrison et al., 2001). […] Western blot results were quantified using Gel analysis software by ImageJ. […]
# intact nerves = assay: Morphometric analysis of nerve sections: myelin thickness of non-crushed, intact nerves; type: in vivo, wildtype mice; conditions: long-term treatment over 8 weeks, vs PBS control
# Protocol: Analysis of axon calibre, myelination thickness and solidity factor was conducted on semi-thin and ultra-thin sections of the sciatic nerve removed from transcardially perfused mice. Mice were perfused with a solution containing 3% paraformaldehyde and 3% glutaraldehyde in 0.1 M phosphate buffer (pH 7.4). Sections were postfixed for 1 h and kept in fixative including 3% sucrose. Sections were obtained from the distal part of the sciatic nerve. Sectioning and staining were performed as described. Images of toluidine blue-stained semi-thin sections were taken using an Axioskop 2 MOT (Carl Zeiss, Germany) equipped with a 100× immersion oil objective and an Olympus XC50 digital camera (Olympus, Germany). Standardized settings for camera sensitivity, resolution (2,576×1,932 pixels) and brightness of illumination were used for all micrographs. Ultra-thin sections were analysed with an electron microscope (EM910, Carl Zeiss) equipped with an integrated TRS 1K digital camera (Carl Zeiss). Image analysis was conducted with ImageJ version 1.48u. RGB colour images obtained from semi-thin sections were split into single channels and the green channel was chosen for measurements. The image was contrasted using the auto function. Axon and myelin were circumscribed manually by the freehand selection tool. Based on the measured areas, the thicknesses of the axons and myelin sheaths were calculated. […]
molecule,measurement,setting,value
"rhNRG1: EGF domain containing 7 kDa protein of recombinant human Neuregulin 1, purchased from Reprokine (#RKQ02297) (protein, listed as Homo sapiens) SHLVKCAEKEKTFCVNGGECFMVKDLSNPSRYLCKCPNEFTGDRCQNYVMASFYKHLGIEF",tumorlet fraction (area occupied by tumorlets relative to total nerve tissue area),[1],significant reduction
same,time of peak rhNRG1 serum level after injection,[2],2 days
same,ErbB2 expression (immunoblot),[3],reduced
same,myelin protein zero (MPZ) expression (immunoblot),[3],increased
same,"impact on the microarchitecture of intact nerves (myelin thickness, g-ratio)",intact nerves,no obvious impact
